This note sets out measurements from ChEMBL document CHEMBL1132182, “2,6-Difluorophenol as a bioisostere of a carboxylic acid: bioisosteric analogues of gamma-aminobutyric acid” (J Med Chem, 1999).

The data set relates to NCCCC(=O)O.

4-aminobutyrate aminotransferase, mitochondrial (Sus scrofa), P80147, sequence (P80147 whole entry): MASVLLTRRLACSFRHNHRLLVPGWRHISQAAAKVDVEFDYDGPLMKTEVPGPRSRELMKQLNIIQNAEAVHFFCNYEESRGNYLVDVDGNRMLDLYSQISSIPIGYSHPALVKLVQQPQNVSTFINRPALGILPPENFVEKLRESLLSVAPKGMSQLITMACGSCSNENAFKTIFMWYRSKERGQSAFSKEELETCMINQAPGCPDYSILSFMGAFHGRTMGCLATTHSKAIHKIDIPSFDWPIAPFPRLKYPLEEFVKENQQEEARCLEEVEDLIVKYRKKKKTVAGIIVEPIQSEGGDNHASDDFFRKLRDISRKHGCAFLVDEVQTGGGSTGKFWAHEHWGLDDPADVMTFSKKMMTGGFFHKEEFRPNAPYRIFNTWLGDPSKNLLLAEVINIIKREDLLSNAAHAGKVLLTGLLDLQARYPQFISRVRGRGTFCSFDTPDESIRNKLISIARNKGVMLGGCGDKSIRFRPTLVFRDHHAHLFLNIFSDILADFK
Description: Michaelis-Menten constant of the compound.

On to “4-aminobutyrate aminotransferase, mitochondrial (Sus scrofa), P80147”, for which the Km (in general, the substrate concentration at which the rate is half of its maximum) turned out to be 2500 µM.
